Laboratory results: paper PMC11287377, “tRNA ^Arg binds in vitro TDP-43 RNA recognition motifs and ligand of Ate1 protein LIAT1” (microPublication Biology, 2024)

B1: recombinant mouse LIAT1 (ligand of Ate1 protein), full length (natural protein, UniProt Q810M6 1-228, looked up)
chain: MAGRGGTGAAEYGEEGEEEEEEEAREGGAEGSPGSKLPPIVGTASELAKRKVKKKKKKKKTKGSGKGDADKHHSRGRKNQPLSSSFHDILNPHKDHGLRAEPRDKEENRQTLPYSYSINHPCFAEIEDTLSSQINESLRWDGILTDPEAEKERIRIYKLNRRKRYRLMALKCFHSDPCVEESVENLPYLSDKDCSPCSKQPSSKGDHAHSYFEASKLLHPELATTVAE
notes: LIAT1 (ligand of Ate1), Mus musculus, full length, theoretical molecular weight ~24 kDa; Tags removed with TEV protease; also called mLIAT1; source: E. coli BL21 KRX, purified (NiNTA, TEV digestion, SEC)
B2: human TDP-43 NTD (residues 1-85) (domain or fragment, UniProt Q13148 1-85, looked up)
chain: MSEYIRVTEDENDEPIEIPSEDDGTVLLSTVTAQFPGACGLRYRNPVSQCMRGVRLVEGILHAPDAGWGNLVYVVNYPKDNKRKM
notes: Tags removed with TEV protease; also called hTDP-43 NTD; source: E. coli BL21 KRX, purified (NiNTA, TEV digestion, SEC)
B3: human TDP-43 NLS-RRM1-RRM2 (residues 85-266) (domain or fragment, UniProt Q13148 85-266, looked up)
chain: MDETDASSAVKVKRAVQKTSDLIVLGLPWKTTEQDLKEYFSTFGEVLMVQVKKDLKTGHSKGFGFVRFTEYETQVKVMSQRHMIDGRWCDCKLPNSKQSQDEPLRSRKVFVGRCTEDMTEDELREFFSQYGDVMDVFIPKPFRAFAFVTFADDQIAQSLCGEDLIIKGISVHISNAEPKHNS
notes: Tags removed with TEV protease; also called hTDP-43 NLS-RRM1-RRM2; source: E. coli BL21 KRX, purified (NiNTA, TEV digestion, SEC)
B4: human TDP-43 NTD-ΔNLS-RRM1-RRM2 (residues 1-85 and 101-266) (domain or fragment, UniProt Q13148 1-85, looked up)
chain: MSEYIRVTEDENDEPIEIPSEDDGTVLLSTVTAQFPGACGLRYRNPVSQCMRGVRLVEGILHAPDAGWGNLVYVVNYPKDNKRKMQKTSDLIVLGLPWKTTEQDLKEYFSTFGEVLMVQVKKDLKTGHSKGFGFVRFTEYETQVKVMSQRHMIDGRWCDCKLPNSKQSQDEPLRSRKVFVGRCTEDMTEDELREFFSQYGDVMDVFIPKPFRAFAFVTFADDQIAQSLCGEDLIIKGISVHISNAEPKHNS
notes: Internal deletion of the NLS linker (residues 86-100); no replacing linker is mentioned; Tags removed with TEV protease; also called hTDP-43 NTD-ΔNLS-RRM1-RRM2; source: E. coli BL21 KRX, purified (NiNTA, TEV digestion, SEC)

Target: the molecule itself
Assay: SEC; 500 uL of tagless purified protein on Superdex 75 10/30 in SEC buffer (150 mM KCl, 20 mM NaCl, 1 mM MgCl2, 5% glycerol, 50 mM HEPES pH 7.7), 0.5 mL/min; size from a calibration curve of standard proteins

Stoichiometry N, 2:
B1, B2, B3, B4
